Assay results taken from the supplement of paper PMC9112550, “Optimization of the antimicrobial peptide Bac7 by deep mutational scanning” (BMC Biology, 2022).

test system: Escherichia coli TOP10; assay: shrunken log2 fold change of peptide-encoding DNA abundance (4.5 h post-induction vs induction); higher = less antimicrobial activity (less host growth inhibition); details: time post-induction: 4.5 h; library: site-saturation at positions 5, 18, 19, 20
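Note: peptides expressed intracellularly from a pBAD plasmid library in pooled LB shake-flask culture, induced with 0.3% L-arabinose, DNA abundance read by NGS, three biological replicates, DESeq2 with apeglm shrinkage.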

Row | Sequence | shrunken log2 fold change
1 | RRIRHRPPRLPRPRPRPCSGPRP | -0.0968
2 | RRIRHRPPRLPRPRPRPCTRPRP | 0.0237
3 | RRIRHRPPRLPRPRPRPCVYPRP | -0.62
4 | RRIRHRPPRLPRPRPRPCWNPRP | -0.151
5 | RRIRHRPPRLPRPRPRPCWPPRP | -0.106
6 | RRIRHRPPRLPRPRPRPCYGPRP | -0.238
7 | RRIRHRPPRLPRPRPRPCYPPRP | -0.384
8 | RRIRHRPPRLPRPRPRPDCDPRP | -0.243
9 | RRIRHRPPRLPRPRPRPDEVPRP | -0.00134
10 | RRIRHRPPRLPRPRPRPDFCPRP | -0.0801
11 | RRIRHRPPRLPRPRPRPDFIPRP | -0.391
12 | RRIRHRPPRLPRPRPRPDGAPRP | -0.0729
13 | RRIRHRPPRLPRPRPRPDGWPRP | 0.191
14 | RRIRHRPPRLPRPRPRPDHCPRP | 0.0278
15 | RRIRHRPPRLPRPRPRPDIEPRP | 0.0242
16 | RRIRHRPPRLPRPRPRPDIGPRP | 0.0697
17 | RRIRHRPPRLPRPRPRPDIMPRP | -0.261
18 | RRIRHRPPRLPRPRPRPDISPRP | -0.278
19 | RRIRHRPPRLPRPRPRPDKEPRP | -0.00149
20 | RRIRHRPPRLPRPRPRPDKKPRP | -0.0244
21 | RRIRHRPPRLPRPRPRPDLIPRP | -0.0224
22 | RRIRHRPPRLPRPRPRPDMGPRP | 0.00739
23 | RRIRHRPPRLPRPRPRPDNIPRP | -0.207
24 | RRIRHRPPRLPRPRPRPDNVPRP | -0.02
25 | RRIRHRPPRLPRPRPRPDPTPRP | -0.0262

Row | Sequence | shrunken log2 fold change
26 | RRIRHRPPRLPRPRPRPDPYPRP | -0.126
27 | RRIRHRPPRLPRPRPRPDQCPRP | -0.000823
28 | RRIRHRPPRLPRPRPRPDQEPRP | -0.01
29 | RRIRHRPPRLPRPRPRPDQYPRP | 0.0188
30 | RRIRHRPPRLPRPRPRPDRAPRP | 0.217
31 | RRIRHRPPRLPRPRPRPDRDPRP | -0.0136
32 | RRIRHRPPRLPRPRPRPDSCPRP | -0.164
33 | RRIRHRPPRLPRPRPRPDSKPRP | -0.362
34 | RRIRHRPPRLPRPRPRPDSWPRP | -0.0468
35 | RRIRHRPPRLPRPRPRPDTLPRP | 0.00779
36 | RRIRHRPPRLPRPRPRPDVKPRP | -0.0186
37 | RRIRHRPPRLPRPRPRPDYKPRP | 0.00107
38 | RRIRHRPPRLPRPRPRPDYNPRP | -0.901
39 | RRIRHRPPRLPRPRPRPDYVPRP | -0.165
40 | RRIRHRPPRLPRPRPRPEALPRP | -0.0062
41 | RRIRHRPPRLPRPRPRPECAPRP | 0.249
42 | RRIRHRPPRLPRPRPRPECTPRP | 0.154
43 | RRIRHRPPRLPRPRPRPEERPRP | -0.0858
44 | RRIRHRPPRLPRPRPRPEFLPRP | -0.0472
45 | RRIRHRPPRLPRPRPRPEHLPRP | 0.0981
46 | RRIRHRPPRLPRPRPRPEKMPRP | -0.0669
47 | RRIRHRPPRLPRPRPRPELAPRP | -0.0268
48 | RRIRHRPPRLPRPRPRPELVPRP | 0.177
49 | RRIRHRPPRLPRPRPRPEMKPRP | -0.0143
50 | RRIRHRPPRLPRPRPRPEMRPRP | 0.122

Row | Sequence | shrunken log2 fold change
51 | RRIRHRPPRLPRPRPRPENAPRP | 0.14
52 | RRIRHRPPRLPRPRPRPENMPRP | -0.042
53 | RRIRHRPPRLPRPRPRPENRPRP | 0.019
54 | RRIRHRPPRLPRPRPRPENSPRP | -0.304
55 | RRIRHRPPRLPRPRPRPENWPRP | 0.147
56 | RRIRHRPPRLPRPRPRPEPCPRP | 0.0696
57 | RRIRHRPPRLPRPRPRPEPKPRP | -0.0206
58 | RRIRHRPPRLPRPRPRPEQNPRP | 0.0816
59 | RRIRHRPPRLPRPRPRPEREPRP | 0.0173
60 | RRIRHRPPRLPRPRPRPETCPRP | -0.0251
61 | RRIRHRPPRLPRPRPRPETEPRP | 0.105
62 | RRIRHRPPRLPRPRPRPETPPRP | 0.561
63 | RRIRHRPPRLPRPRPRPETTPRP | 0.194
64 | RRIRHRPPRLPRPRPRPEVNPRP | 0.062
65 | RRIRHRPPRLPRPRPRPEVVPRP | -0.018
66 | RRIRHRPPRLPRPRPRPEWGPRP | 0.209
67 | RRIRHRPPRLPRPRPRPEYKPRP | -0.467
68 | RRIRHRPPRLPRPRPRPEYMPRP | -0.05
69 | RRIRHRPPRLPRPRPRPFALPRP | 0.051
70 | RRIRHRPPRLPRPRPRPFASPRP | -0.182
71 | RRIRHRPPRLPRPRPRPFCNPRP | 0.00929
72 | RRIRHRPPRLPRPRPRPFCYPRP | -0.286
73 | RRIRHRPPRLPRPRPRPFDRPRP | -0.172
74 | RRIRHRPPRLPRPRPRPFEEPRP | 0.0124
75 | RRIRHRPPRLPRPRPRPFEHPRP | -0.0952
